In the supplement of paper PMC9732359:
± gives the uncertainty stated by the source.

Assay: protein stability index of a GFP-peptide fusion (yeast GPS) (PSI 1-4); higher = more stable; sorted into four equal gates, so the index is relative within each strain
Method in brief: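 The protein stability index of a peptide was calculated by multiplying its read frequency in each gate by that gate's number and adding the products. The peptides were tiled 17-residue stretches of yeast proteins, fused downstream of GFP on a Cherry-expressing plasmid and carried in yeast as a pooled library. Mid-log cultures in leucine-free medium were sorted into four equal gates by GFP/Cherry ratio, and each gate's plasmids were PCR-amplified and Illumina-sequenced.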

| Sequence | protein stability index (doa10∆) | protein stability index (pdr5∆) | protein stability index (san1∆) | protein stability index (ubr1∆) |
| --- | --- | --- | --- | --- |
| ISKHSKQAIYTRAAASE [RPS25B] | 2.74 ± 0.055 | 2.73 ± 0.048 | 2.6 ± 0.047 | 2.86 ± 0.041 |
| YVFNARPDGVHVINVGK [RPS0A] | – | 2.78 ± 0.24 | – | 2.55 ± 0.11 |
| NVETYEQILQWVTEVLG [BRR2] | 1.83 ± 0.065 | 1.75 ± 0.06 | 1.77 ± 0.089 | 2 ± 0.082 |
| EKKAEYFAKLREYLEEY [RPP0] | 3.44 ± 0.092 | 3.31 ± 0.088 | 3.05 ± 0.067 | 3.54 ± 0.099 |
| RFVIWTEAAFTKLDQVW [RPL4A] | 3.18 ± 0.11 | 2.39 ± 0.096 | 2.28 ± 0.24 | 2.39 ± 0.13 |
| TNVRLYSLLLASKGIDR [ECM29] | 2.13 ± 0.048 | 2.79 ± 0.087 | 3.48 ± 0.088 | 3.33 ± 0.069 |
| DGHYIEENSQGNILDFN [REC8] | 3.23 ± 0.11 | 2.67 ± 0.098 | 2.89 ± 0.065 | 2.81 ± 0.1 |
| QRFVGHKSDVMSVDIDK [ASC1] | 3.04 ± 0.095 | 3.06 ± 0.061 | 2.69 ± 0.082 | 2.96 ± 0.071 |
| KAKYNTPKYRLVVRFTN [RPL5] | 1.39 ± 0.049 | 1.53 ± 0.073 | 1.24 ± 0.21 | 1.12 ± 0.068 |
| GPHKGKAPRILSTGRKF [RPL18A] | 2.81 ± 0.26 | – | 3.21 ± 0.16 | 2.92 ± 0.13 |
| EKLTLVTLSEIYNELSY [CSN9] | 1.48 ± 0.047 | 1.66 ± 0.036 | 1.57 ± 0.073 | 1.49 ± 0.046 |
| PSTGFKFSLPFEQKGSQ [YLR335W/NUP2] | 2.99 ± 0.11 | 2.94 ± 0.088 | 3.07 ± 0.087 | 2.96 ± 0.096 |
| AYPGKLICPQYGTENKD [CSL4] | 1.89 ± 0.073 | 1.93 ± 0.068 | 1.72 ± 0.15 | 1.9 ± 0.078 |
| ATFLLTDIKDTLTKISM [MCD1] | 3.03 ± 0.13 | 3.14 ± 0.13 | 2.88 ± 0.099 | 3.17 ± 0.08 |
| CITLDQLAVRAPKGQNT [RPL18A] | – | 3.39 ± 0.2 | 2.94 ± 0.079 | 3.38 ± 0.095 |
| EKNGGLGWDLDAIIPFA [FAS2] | 3.14 ± 0.098 | 3.22 ± 0.13 | 3.28 ± 0.066 | 3.08 ± 0.068 |
| KKDRATGDADEPELRVL [RPO21] | 3.53 ± 0.11 | 3.48 ± 0.074 | 3.39 ± 0.06 | 3.43 ± 0.046 |
| RVARRNAARKAEASGEA [RPS9A] | 3.32 ± 0.13 | 3.44 ± 0.17 | – | 3 ± 0.098 |
| KTKKEKGPNEEEKKKEH [RPN2] | 3.05 ± 0.28 | 3.32 ± 0.16 | 3.49 ± 0.081 | 3.13 ± 0.19 |

| Sequence | protein stability index (doa10∆) | protein stability index (pdr5∆) | protein stability index (san1∆) | protein stability index (ubr1∆) |
| --- | --- | --- | --- | --- |
| KIADLVRIPPDQFHRDT [RPC25] | 2.18 ± 0.063 | 2.52 ± 0.062 | 2.45 ± 0.085 | 2.93 ± 0.088 |
| RIMSTRCMMAAQYFYSG [DIS3] | 1.67 ± 0.06 | 1.95 ± 0.058 | 1.58 ± 0.079 | 1.77 ± 0.04 |
| DTKPFLNKDSTNEFVGS [NUT1] | 3.09 ± 0.064 | 2.79 ± 0.054 | 2.44 ± 0.062 | 3.04 ± 0.039 |
| LLSIKLPGKVNTKEEFA [SNF5] | 2.15 ± 0.17 | 1.82 ± 0.083 | 1.78 ± 0.16 | 2.51 ± 0.23 |
| VSKVQKRKVLELKKKRK [SRP72] | 2.78 ± 0.1 | 2.57 ± 0.13 | 2.24 ± 0.1 | 2.48 ± 0.054 |
| SLIKETNQLVLLQKMLN [YML103C/NUP188] | – | 1.29 ± 0.094 | 1.06 ± 0.096 | 1.02 ± 0.077 |
| QKRQLHDISKTETSNED [SNU114] | 3.06 ± 0.049 | 2.97 ± 0.045 | 2.98 ± 0.039 | 3.044 ± 0.03 |
| MALNKVLITDHIEKLEN [CDC53] | 2.52 ± 0.053 | 2.14 ± 0.047 | 2.15 ± 0.059 | 2.28 ± 0.052 |
| SDGQSRVKDIHLRKLLD [RET1] | 2.88 ± 0.061 | 2.98 ± 0.067 | 3.11 ± 0.068 | 2.99 ± 0.043 |
| TKGDSTPVQPDLSVTPQ [YAR002W/NUP60] | 3.22 ± 0.036 | 3.16 ± 0.036 | 2.984 ± 0.028 | 3.098 ± 0.024 |
| CEKWAASSWAKKIAQRE [RPL14A] | 2.35 ± 0.089 | 3.16 ± 0.12 | 2.24 ± 0.17 | 2.06 ± 0.062 |
| TRVEGSGGGDSEVQRTM [RPT6] | 2.73 ± 0.098 | 2.65 ± 0.13 | 2.98 ± 0.087 | 3.19 ± 0.051 |
| LAYRNYWTQYLGLFIHK [YJL039C/NUP192] | 1.94 ± 0.057 | 1.56 ± 0.037 | 1.9 ± 0.055 | 2.02 ± 0.039 |
| WKQDLTKEEAIKLASDA [PUP1] | 2.81 ± 0.19 | 3.16 ± 0.14 | 2.2 ± 0.14 | 3.01 ± 0.16 |
| RLGDLGVIDDSFDVAIS [SMC4] | 2.85 ± 0.14 | 2 ± 0.14 | 1.23 ± 0.25 | 1.98 ± 0.067 |
| PGFDEFQLIDMKDKEIN [CSI1] | 3.34 ± 0.14 | 3 ± 0.11 | 3.41 ± 0.045 | 3.45 ± 0.061 |
| LTEEELKTRYVGRQDPK [RPN11] | – | 3.36 ± 0.13 | 3.26 ± 0.14 | 3.56 ± 0.21 |
| VFTALLRLFINEEGDWS [ITC1] | 3.4 ± 0.29 | 2.08 ± 0.17 | – | – |
| AYLLLNAAGNTPDATKI [RPP2A] | 2.2 ± 0.038 | 2.17 ± 0.036 | 2.17 ± 0.051 | 2.49 ± 0.039 |
